Laboratory results published in patent US20040180409.

Tested on: T1, epitope-tagged (V5) full-length murine TLT-1 (TREM-like transcript-1) expressed in HEK293T cells
T1 sequence: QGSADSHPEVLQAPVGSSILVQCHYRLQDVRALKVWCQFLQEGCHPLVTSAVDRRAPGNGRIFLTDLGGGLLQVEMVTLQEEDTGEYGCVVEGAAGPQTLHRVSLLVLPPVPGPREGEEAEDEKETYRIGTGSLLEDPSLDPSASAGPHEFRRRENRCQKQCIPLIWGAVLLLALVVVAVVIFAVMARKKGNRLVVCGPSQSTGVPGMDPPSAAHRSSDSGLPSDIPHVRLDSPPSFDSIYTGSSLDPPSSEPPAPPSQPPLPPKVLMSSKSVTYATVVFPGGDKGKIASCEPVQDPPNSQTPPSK

Syk was tested, and the “tyrosine phosphorylation of TLT-1 (anti-V5 immunoprecipitation, antiphosphotyrosine immunoblot)” value was “TLT-1 is phosphorylated by Src but not Syk”.
